Laboratory results reported in patent US20240025969A1, “NPC1 MONOBODIES AND MONOBODY CONJUGATES THEREOF” (NEW YORK UNIVERSITY, priority 2020, published 2024).
Entries after “also recorded” stand apart in the source; their conditions may differ. Each block holds one molecule with its values, some of them ahead of it.

How the values were obtained:
ERK = ERK hyperactivation in NPC1 knockdown cells, EGFR inhibition; format: cell-based; settings: short-term EGFR inhibition
PDAC MIA PaCa3 cells = test: Calcein endosomal release assay, with or without nanoparticle delivery vehicle; format: cell-based; settings: for endosomal release of calcein: calcein alone (PBS) or packaged in pegylated nanoparticle delivery vehicles (90 nm Nano), both conditions; for calcein fluorescence (endosomal release of calcein): co-delivery with calcein (FIG. 17)
Source text: Calcein is a membrane impermeable, fluid phase uptake marker that is semi-quenched when in close proximity with other calcein molecules in vesicular compartments, but with intracellular release and molecule diffusion, dequenching causes an increase in cellular fluorescence.
FIGS. 18A-18B show an NCP1 monobody mediated increase in endosomal calcein release that was further improved in the presence of a nanoparticle delivery vehicle. FIG. 18A is a panel of immunocytochemical images of PDAC MIA PaCa3 cells treated with calcein alone (PBS) or packaged in a pegylated nanoparticle delivery vehicles (90 nm Nano) (images of top row). […] FIG. 18B is a graph quantifying calcein fluorescence in each of the tested conditions.
Endosome escape was again observed in a small molecule assay (FIG. 17). Calcein is a membrane impermeable, fluid phase uptake marker that is semi-quenched when in close proximity with other calcein molecules in vesicular compartments, but with intracellular release and molecule diffusion, dequenching causes an increase in cellular fluorescence. […] The NPC1 targeting monobodies have been established to induce small molecule, biologic, and nanoparticle escape.

[1] = test system: Mutant Ras PDAC MIA PaCa-2 cells; test: Split GFP assay for endosomal escape of GFP11; format: cell-based; settings: MIA PaCa-2 cells expressing GFP1-10; 600 mM GFP11 with 1 mM monobody for 24 hrs
Protocol: Mutant Ras PDAC MIA PaCa-2 cells stably expressing cytoplasmic GFP1-10 were treated with 600 mM GFP11 with or without 1 mM of the N23 or N34 NCP1 monobody for 24 hrs.
A split GFP assay was developed to measure endosomal escape of proteins. Mutant Ras PDAC MIA PaCa-2 cells were stably expressed with GFP1-10, which is missing the 11β domain needed for fluorescence, making endosomal escape of GFP110 necessary for a positive signal. NPC1 targeting and control monobodies were co-delivered with the free GFP110 domain.

NPC1 = target: T1, NPC1 (Homo sapiens, UniProt O15118); test: Screen for NPC1-inhibitory monobodies: intracellular cholesterol trafficking, filipin; format: cell-based; settings: for inhibition of NPC1 by endosomal accumulation of cholesterol: DLD1 cells (Ras mutation, colon), cholesterol measured by filipin; for cholesterol entrapment / vesicle disruption: DLD1 cells, preliminary data; for cholesterol entrapment: filipin
T1 construct: endogenous in cells; host or cells: DLD-1 (mutant KRas colorectal cancer cells)
T1 sequence (O15118 23-1278): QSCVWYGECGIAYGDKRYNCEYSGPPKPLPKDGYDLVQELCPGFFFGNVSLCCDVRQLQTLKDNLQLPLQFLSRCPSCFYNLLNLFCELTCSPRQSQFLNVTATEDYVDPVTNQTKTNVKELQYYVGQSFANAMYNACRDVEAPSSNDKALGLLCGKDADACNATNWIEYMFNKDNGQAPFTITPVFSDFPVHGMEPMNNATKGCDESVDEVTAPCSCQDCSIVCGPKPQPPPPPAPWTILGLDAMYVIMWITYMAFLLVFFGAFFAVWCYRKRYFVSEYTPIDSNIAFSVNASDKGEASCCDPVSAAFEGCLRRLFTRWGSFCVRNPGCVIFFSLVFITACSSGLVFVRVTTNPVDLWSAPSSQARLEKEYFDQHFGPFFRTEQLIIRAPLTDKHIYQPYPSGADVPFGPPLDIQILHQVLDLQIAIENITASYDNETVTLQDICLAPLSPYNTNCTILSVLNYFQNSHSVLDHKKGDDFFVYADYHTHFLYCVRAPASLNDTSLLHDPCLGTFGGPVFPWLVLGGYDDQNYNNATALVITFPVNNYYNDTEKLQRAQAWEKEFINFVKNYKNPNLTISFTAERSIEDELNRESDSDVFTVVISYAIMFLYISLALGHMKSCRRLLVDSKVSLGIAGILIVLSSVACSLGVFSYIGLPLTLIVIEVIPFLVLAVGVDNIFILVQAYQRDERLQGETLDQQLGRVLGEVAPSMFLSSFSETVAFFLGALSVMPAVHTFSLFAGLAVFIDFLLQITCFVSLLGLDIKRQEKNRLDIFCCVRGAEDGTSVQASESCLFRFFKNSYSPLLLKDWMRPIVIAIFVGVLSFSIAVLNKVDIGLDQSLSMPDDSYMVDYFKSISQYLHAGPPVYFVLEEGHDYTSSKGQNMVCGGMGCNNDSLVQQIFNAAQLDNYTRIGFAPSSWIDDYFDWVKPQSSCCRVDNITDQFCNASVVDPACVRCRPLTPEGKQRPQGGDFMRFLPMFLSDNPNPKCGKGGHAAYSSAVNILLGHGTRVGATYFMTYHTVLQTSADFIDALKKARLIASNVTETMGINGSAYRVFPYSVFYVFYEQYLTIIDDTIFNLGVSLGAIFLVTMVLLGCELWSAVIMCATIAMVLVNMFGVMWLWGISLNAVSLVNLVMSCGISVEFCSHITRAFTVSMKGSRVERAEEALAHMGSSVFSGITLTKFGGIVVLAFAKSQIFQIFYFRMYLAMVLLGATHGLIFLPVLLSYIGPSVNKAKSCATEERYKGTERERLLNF
Source text: FIG. 7A is a graph showing the effect of monobody clones on intracellular cholesterol trafficking. FIG. 7B are representative cell images from FIG. 7A. FIG. 7C is a heat map representation of cholesterol localization from FIG. 7B.
A major benefit of monobodies over antibodies is the lower cost in manufacturing. However, if monobodies need to be re-folded or aggregate during production, the cost of manufacturing can exceed that of antibodies. […] Utilizing both the imaging-based and biochemical approaches, it was confirmed that the monobodies described herein inhibit NPC1 in cell culture. […] FIG. 7B DLD1 cells (Ras mutation, colon) were treated with the top monobody hits and cholesterol was measured by filipin.

HeLa cells = test: LC3B accumulation in macropinocytosis negative wild-type KRas HeLa cells; format: cell-based
Protocol: (§1) FIGS. 8A-8B show mutant KRas-dependent effects of NPC1-targeting monobodies. N23 and N34 clones were analyzed for effect on macropinocytosis negative wild-type KRas HeLa cells (FIG. 8A) versus macropinocytosis-positive mutant KRas […] cells (FIG. 8B). FN is a non-targeting monobody control. Arrows indicate LC3B accumulation.

HCT-116 cell = HCT-116 cell proliferation, Syto60 assay; format: cell-based; settings: Syto60 assay after 3 days of treatment, n=3
Protocol: Proliferation was analyzed by Syto60 assay after 3 days of treatment. n=3

HCT-116 [2] = test: LC3B accumulation in HCT-116 cells; format: cell-based
Source text: (§2) FIGS. 10A-10B show monobody selectivity in colorectal DLD-1 and HCT-116 cancer cells (CRC).
(§3) Confirmation that uptake is dependent on macropinocytosis was confirmed in CRC cell lines. […] It was also observed that upon NPC1 knockdown in vitro, there is ERK hyperactivation (FIG. 13A). This observation was confirmed using the N34 monobody in vivo (FIG. 13B).

DLD-1 = test: Monobody uptake in mutant KRas CRC cells DLD-1; format: cell-based; settings: mutant KRas CRC cells DLD-1, macropinocytosis positive
Source text: as §2, §3

xenografts = test: Intratumor injection of monobody into xenografts; format: in vivo
Protocol: FIG. 11 show the in vivo cholesterol alterations with NPC1-targeting monobody (N34) versus non-targeting control (FN).
Monobody (1 uM; 50ul volume) was intratumorally injected two hours prior to tumor extraction.
Monobody (1 uM; 50ul volume) was intratumorally injected two hours prior to tumor extraction. Images were taken of serial sections from FIG. 13B.
as §3

HCA7 = test: Monobody uptake in wild-type KRas CRC cells; format: cell-based; settings: macropinocytosis negative
Source text: as §2, §3

HeLa KRasV12 cells = test: LC3B accumulation in macropinocytosis-positive mutant KRas HeLa cells; format: cell-based
Protocol: as §1

HCT-116 [3] = test: Monobody uptake in mutant KRas CRC cells HCT-116; format: cell-based; settings: mutant KRas CRC cells HCT-116, macropinocytosis positive
Source text: as §2, §3

[4] = N34-positive vs N34-negative areas, 1 uM, 50ul intratumorally, 2 hours post-injection
[5] = N34-positive vs N34-negative tumor, 1 uM, 50ul intratumorally two hours prior to tumor extraction

Molecule: COc1cc2ncnc(Nc3ccc(F)c(Cl)c3)c2cc1NC(=O)/C=C/CN1CCCCC1 [dacomitinib]
ERK hyper-activation (ERK): blocked ERK hyper-activation

inhibition of NPC1 by endosomal accumulation of cholesterol (NPC1): greatest inhibition of NPC1
cholesterol entrapment (NPC1): improved cholesterol entrapment
vesicle disruption (NPC1): induce vesicle disruption
B1: N34: NPC1-targeting monobody clone N34 (SEQ ID NO: 40) (protein)
chain: VSSVPTKLEVVAATPTSLLISWDAPAVTVSYYVITYGETGGHYWHWQTFKVPGSKSTATISGLKPGVDYTITVYAYYGQMRYYSPISINYRT
endosomal release of calcein (PDAC MIA PaCa3 cells): enhanced endosomal release of calcein
calcein fluorescence (endosomal release of calcein) (PDAC MIA PaCa3 cells): increasing calcein fluorescence
fluorescence (endosomal escape of GFP11) [1]: observed
LC3B accumulation (HeLa cells): did not induce LC3B accumulation
CRC cell proliferation (HCT-116 cell): growth inhibitory effect
accumulation of LC3B (HCT-116 [2]): dose-dependent accumulation of LC3B
uptake of monobody (DLD-1): efficiently internalize
LC3B accumulation in xenograft (xenografts; [4]): robust cholesterol and LC3B accumulation; also recorded: induces cholesterol and LC3B accumulation
cholesterol accumulation in xenograft (xenografts; [4]): robust cholesterol and LC3B accumulation; also recorded: induces cholesterol and LC3B accumulation
EGFR phosphorylation (activation) in tumor (xenografts; [5]): EGFR activation was seen; also recorded: induces EGFR phosphorylation
ERK phosphorylation (hyperactivation) in tumor (xenografts; [5]): confirmed; also recorded: induces ERK phosphorylation
cholesterol accumulation in tumor cells (xenografts; N34 positive tumor cells compared to non-targeting control monobody (FN)): displayed cholesterol accumulation
uptake in CK8-positive tumor cells (xenografts; intratumor injection into xenografts): showed uptake
uptake of monobody (HCA7): fail to uptake
LC3B accumulation (HeLa KRasV12 cells): did show an effect
uptake of monobody (HCT-116 [3]): efficiently internalize

inhibition of NPC1 by endosomal accumulation of cholesterol (NPC1): greatest inhibition of NPC1
cholesterol entrapment (NPC1): improved cholesterol entrapment
vesicle disruption (NPC1): induce vesicle disruption
B2: N23: NPC1-targeting monobody clone N23 (SEQ ID NO: 36) (protein)
chain: VSSVPTKLEVVAATPTSLLISWDASSSSVSYYRITYGETGGPFWHYQTFTVPGSKSTATISGLKPGVDYTITVYTYSSSMHFSSSPISINYRT
endosomal release of calcein (PDAC MIA PaCa3 cells): enhanced endosomal release of calcein
calcein fluorescence (endosomal release of calcein) (PDAC MIA PaCa3 cells): increasing calcein fluorescence
fluorescence (endosomal escape of GFP11) [1]: observed
LC3B accumulation (HeLa cells): did not induce LC3B accumulation
CRC cell proliferation (HCT-116 cell): no significant inhibition
LC3B accumulation (HeLa KRasV12 cells): did show an effect
